# In the supplement of paper PMC9112550, “Optimization of the antimicrobial peptide Bac7 by deep mutational scanning” (BMC Biology, 2022):
# Test system: Escherichia coli TOP10
# Test: shrunken log2 fold change of peptide-encoding DNA abundance (4.5 h post-induction vs induction); higher = less antimicrobial activity (less host growth inhibition)
# Conditions: time post-induction: 4.5 h; library: site-saturation at positions 5, 18, 19, 20
# 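Note: peptides expressed intracellularly from a pBAD plasmid library in pooled LB shake-flask culture, induced with 0.3% L-arabinose, DNA abundance read by NGS, three biological replicates, DESeq2 with apeglm shrinkage.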
row,Sequence,shrunken log2 fold change
1,RRIRFRPPRLPRPRPRPPKPPRP,0.47
2,RRIRFRPPRLPRPRPRPPKWPRP,0.286
3,RRIRFRPPRLPRPRPRPPKYPRP,-0.0263
4,RRIRFRPPRLPRPRPRPPLGPRP,1.33
5,RRIRFRPPRLPRPRPRPPRMPRP,0.332
6,RRIRFRPPRLPRPRPRPPRWPRP,0.659
7,RRIRFRPPRLPRPRPRPPSHPRP,0.123
8,RRIRFRPPRLPRPRPRPPSIPRP,-0.0341
9,RRIRFRPPRLPRPRPRPPSSPRP,0.208
10,RRIRFRPPRLPRPRPRPPTCPRP,0.186
11,RRIRFRPPRLPRPRPRPPTQPRP,0.327
12,RRIRFRPPRLPRPRPRPPTRPRP,0.748
13,RRIRFRPPRLPRPRPRPPYAPRP,0.0335
14,RRIRFRPPRLPRPRPRPQAEPRP,-0.263
15,RRIRFRPPRLPRPRPRPQAHPRP,-0.454
16,RRIRFRPPRLPRPRPRPQAMPRP,0.0123
17,RRIRFRPPRLPRPRPRPQASPRP,0.0447
18,RRIRFRPPRLPRPRPRPQCTPRP,-0.137
19,RRIRFRPPRLPRPRPRPQDCPRP,0.00177
20,RRIRFRPPRLPRPRPRPQDMPRP,0.028
21,RRIRFRPPRLPRPRPRPQDPPRP,-0.00978
22,RRIRFRPPRLPRPRPRPQDQPRP,-0.0978
23,RRIRFRPPRLPRPRPRPQDYPRP,0.0577
24,RRIRFRPPRLPRPRPRPQECPRP,0.0519
25,RRIRFRPPRLPRPRPRPQFLPRP,-0.236

row,Sequence,shrunken log2 fold change
1,RRIRFRPPRLPRPRPRPQGEPRP,0.00441
2,RRIRFRPPRLPRPRPRPQGVPRP,0.103
3,RRIRFRPPRLPRPRPRPQKIPRP,-0.299
4,RRIRFRPPRLPRPRPRPQLTPRP,-0.527
5,RRIRFRPPRLPRPRPRPQMTPRP,-0.169
6,RRIRFRPPRLPRPRPRPQMVPRP,-0.0194
7,RRIRFRPPRLPRPRPRPQNDPRP,-0.296
8,RRIRFRPPRLPRPRPRPQNFPRP,0.0645
9,RRIRFRPPRLPRPRPRPQNIPRP,-0.411
10,RRIRFRPPRLPRPRPRPQPIPRP,0.222
11,RRIRFRPPRLPRPRPRPQREPRP,0.296
12,RRIRFRPPRLPRPRPRPQSNPRP,-0.354
13,RRIRFRPPRLPRPRPRPQTMPRP,-0.144
14,RRIRFRPPRLPRPRPRPQWTPRP,-0.075
15,RRIRFRPPRLPRPRPRPQYEPRP,0.0625
16,RRIRFRPPRLPRPRPRPRANPRP,0.509
17,RRIRFRPPRLPRPRPRPRAVPRP,0.475
18,RRIRFRPPRLPRPRPRPRCCPRP,0.164
19,RRIRFRPPRLPRPRPRPRDEPRP,0.278
20,RRIRFRPPRLPRPRPRPRDFPRP,-0.141
21,RRIRFRPPRLPRPRPRPRDRPRP,0.387
22,RRIRFRPPRLPRPRPRPRFHPRP,-0.409
23,RRIRFRPPRLPRPRPRPRHLPRP,-0.0297
24,RRIRFRPPRLPRPRPRPRHPPRP,0.0568
25,RRIRFRPPRLPRPRPRPRISPRP,-0.0207

row,Sequence,shrunken log2 fold change
1,RRIRFRPPRLPRPRPRPRKKPRP,0.14
2,RRIRFRPPRLPRPRPRPRKQPRP,0.415
3,RRIRFRPPRLPRPRPRPRMAPRP,0.375
4,RRIRFRPPRLPRPRPRPRNGPRP,0.101
5,RRIRFRPPRLPRPRPRPRPVPRP,0.633
6,RRIRFRPPRLPRPRPRPRRFPRP,0.0577
7,RRIRFRPPRLPRPRPRPRRWPRP,0.934
8,RRIRFRPPRLPRPRPRPRSDPRP,0.193
9,RRIRFRPPRLPRPRPRPRTQPRP,1.93
10,RRIRFRPPRLPRPRPRPRTVPRP,0.086
11,RRIRFRPPRLPRPRPRPRVLPRP,0.121
12,RRIRFRPPRLPRPRPRPRVNPRP,-0.116
13,RRIRFRPPRLPRPRPRPRWWPRP,0.34
14,RRIRFRPPRLPRPRPRPRYFPRP,0.0373
15,RRIRFRPPRLPRPRPRPSAWPRP,0.534
16,RRIRFRPPRLPRPRPRPSDFPRP,-0.487
17,RRIRFRPPRLPRPRPRPSEEPRP,-0.196
18,RRIRFRPPRLPRPRPRPSELPRP,-0.0817
19,RRIRFRPPRLPRPRPRPSEQPRP,-0.217
20,RRIRFRPPRLPRPRPRPSFPPRP,-0.38
21,RRIRFRPPRLPRPRPRPSHCPRP,-0.28
22,RRIRFRPPRLPRPRPRPSHIPRP,-0.216
23,RRIRFRPPRLPRPRPRPSIPPRP,-0.602
24,RRIRFRPPRLPRPRPRPSLAPRP,0.119
25,RRIRFRPPRLPRPRPRPSLSPRP,-0.623
